# Assay: soluble on expression in E. coli; label from the status in PepcDB or PDB records
row,Sequence,soluble on expression in E. coli
1,MSLHGVPFGTVPPMGTIGLIAAMPDEIRPFLRLASPAARLHGGRFPIWRLRVGNDDIVLVESGMGIDRATAATDALVAAASPVAILSFGFGGAALPGLKVGDLAVGMTSWFAGTEGIVLRRGIDRNLAEKLAEELNRICNGVTRGEIITSARILKKGDLAHSLPNGISSPILDMETAAVAEAAHRRGIPIVALRAISDDAEEELSFSLDEFTDDDMAIRPRKVLATIARKPWIIPQLLRLARNSRIAGKRLAQGVLATAEFLSRGEGHHHHHH,not soluble
2,SSNPRSLEEEKYDMSGARLALILCVTKAREGSEEDLDALEHMFRQLRFESTMKRDPTAEQFQEELEKFQQAIDSREDPVSCAFVVLMAHGREGFLKGEDGEMVKLENLFEALNNKNCQALRAKPKVYIIQACRGEQRDPGETVGGDEIVMVIKDSPQTIPTYTDALHVYSTVEGYIAYRHDQKGSCFIQTLVDVFTKRKGHILELLTEVTRRMAEAELVQEGKARKTNPEIQSTLRKRLYLQ,soluble
3,MGHHHHHHSHELLVVGSRPELGRWEPRGAVRLRPAGTAAGDGALALQEPGLWLGEVELAAEEAAQDGAEPGRVDTFWYKFLKREPGGELSWEGNGPHHDRCCTYNENNLVDGVYCLPIGHWIEATGHTNEMKHTTDFYFNIAGHQAMHYSRILPNIWLGSCPRQVEHVTIKLKHELGITAVMNFQTEWDIVQNSSGCNRYPEPMTPDTMIKLYREEGLAYIWMPTPDMSTEGRVQMLPQAVCLLHALLEKGHIVYVHCNAGVGRSTAAVCGWLQYVMGWNLRKVQYFLMAKRPAVYI,not soluble
4,GHMNVAKREFIRGMMAHYRASLPPPEHSVVIHELQKRVLDIGMLAVNKAHVELFGSHVSGFCTPHSDADISLTYRNFSPWLQGMERVDEQNNKRMTRFGKEASAMGMEDVRYIRARIPVVQFTDGVTGIHCDVSIGNIGGVENSKILCAIRQVFPDFYGAYIHLVKAWGKAREVIAPERSTFNSFTVTTMALMVLQELGLLPVFSKPTGEFGELTVADAEMLLQEFKLPPIYDSLHDDDEKLGEAVFFCLQRFAEYYAKYDFSAGTVSLIHPRRHRTVYERVVRRHLELLGSRKRLEWEKHIAEHKEDGPLDENDFSASMQNETTQRPSNSPYVVEDFVNYVNCGRRVQASRVRHIQQEFNRLREMLIDKESELKFDEVFRESDTVP,soluble
5,MTKAKRTYEPWYWANEHTRLYMRRGYLLPGVSVEERVKEIAQRAEALTKVEGFGRKFLEYMARGWYSLATPIWANYGLRRGLPISCYGTYVEDDTASILRAVAEVGMMSKQGGGTSLYLGRLRPRGAPIRDNGESNGSFAFASLFDRVIEVFNQGSTRRGQCAAYLDVEHPDLEEWLSIQREHSPVQSLFWGVSVGDRWLEEMIAGDGEKRARWAKILKSRAEVGIPYLFFRDNANQKAPEVFRALGKTIWASNLCTEIMLPSSEEESFVCCLSSLNLLHYEEWKDTDAVETLVIFLDSVLDDFIEKAEGIPYMERAVRFAKRYRAIGLGVLGWHSYLQSQRIPLESPEAFRRNAEIFKTIRERAEEASRWLRKRHPEDELAGVGELKERRNATLLAIAPTKSSAFILGQVSPSIEPYTSNYYLKDLQKARVPFKNPFLEEVLREKGKDEEKVWRSILEHNGSVQHLDFLTDEEKAVFKTFAEISQMTLVNLAASRQKHIDQGQSLNLVIHPEAPPRDVNALVLHAWRSGLKALYYQFSQSVAQAYSRDLLLSCQACEG,soluble
6,MGSDKIHHHHHHMNTADNVVEMRSISKGFNGVSVLKDVSFDVRKGEVHALAGGNGAGKSTLMKILQGVYQADAGEILIGGKPVAINSIQDAKSAGIGMVFQEFSLVPSLTVAQNIFLAAEPLGAGGLIDDRASERRAKEIFAEMEVKVDPRAEVSRLGTAYWQLTEIAKALSQNAQVLIMDEPTASLARHESEALFELIDRLKQRGISIIYISHRMDEVYRLADRITILRDGRRLLTEPLTGVTPEQIVEGIVGKKIEGQLAYRERDQVAHDSAPLLEVRGLNAGPRVRDISFSLRPGEILGLAGLMGSGRTELARALFGIDRRDSGEIFIRGERINLTSPQQAITAGVALIPEDRRAQGLVLEHSVQDNLLLPLLGQIQRGPFLDGARGKELSSSLIKRFAVKVAHPHRPVRLLSGGNQQKVVIAKWLGTDPDILILDEPTAGVDIGTKSEILDMIRELASAGKAVIVISSEYPELLAVSDRVLVLKDGSIIRDIPRSEIADEEYLQLAVQGV,not soluble
7,MSLSIIVASTMSDSGKSFITTGLVRILNAKPLKIQNMSLNSISTWDGGEIAFIQAYQAWGAGLRPERYMNPILLKIMGKGLEVIFMGSSLGIMSGNEYYNLATEKLWKKVSQFLSNDVVIEAAGGIGEPNFIDKDITAIKVMKEKRIPAILVLDIDRGGAFASAYGTYMMLPQSVRENLKGFIINKFRGDEKFLNDAIKWLEEKTGMRYLGYLPFFSEPPIMPEDSMNVYNFGDGNVEVAIIAYPYMSNFNEFYALVKSNARVSFVRKPKETAKADLVILPGSRNTLESLKWLVENGFVEQLRQRSMNILGICGGFQILGKKIVDPYGIEAGYPTEYEGLGIFDINVHYSKDKVVSMTTGISEYGEMNGYEIRRGVIKYMGEKPLLKITLRNGEKVSVEDGAKKDNIIGISVHGTLFSDGMKKLLKEFNINIHSQSMEEEIKQQAIRVEQFLRKYLHIDEIVEIYKEGHHHHHH,not soluble
8,MYHVPLIPRDAGREETIFRINQSLQKLLRVSDEIFDRVEHRITRIHGKAEAIDRRTEVLEKKLESLQESDKVITFTLPRQLPKLPEEPPTSTSLFRINIDTEHFPGSEELPAFRRADDHVLRPCEPIDFTYELNKPDKFFLTSQVLKEYEQKGWERYKKRLLGGLRELSRSPEHIAELFYAGTSIPAFEGVSGDFSKKALDADDDGGTSRSGRTTDELAQLRLHEQLLEDTALSSTLMQEDSLDDNHPLAFRINFNEKKKKTAKMVEMPDSLPNLKGHAHDFTLRDPEIDEDRLLDILPADDQIPEASEPTEAEADAPTTFILPPPPPPMKLDPSPQPAATPVEITEIPPIISPPAPPPPPPPPPPPPPPQTPSASSSVTFSPTKSVDGGRSDLMAAIRAAGGAGNAKLSRIAEKPKRKGKFDGILESSALLGASETPRNSAPAPDGGGGGGDLMSALSKALDARRKAINGKVEAQPPAKVSSTIPAPPNFDDEEWD,not soluble
9,MRGSHHHHHHGMASMTGGQQMGRDLYDDDDKDHPFMAQRTEESKGKLSFATQGGQGEGSYSKSNSAASKTLSACIVPSLEEFLLHHFSPPQGAGPIYYADFGCAVGANTIGLAKFVTETLKSRPEISERDFLCYFADLPTNDFNTLFNQFPPLASRDGGNGNVEERTWFAAGVPGNQFNRMFPRSSLHVAITTLTLHYLPEIPKSITDESSPTFNRGCISSHGASPAVAEVFADTSREGLRKFFQCRAEELASGGVLAFYFPSRPDRAHPERQMSEDSMQLALWKVETAWRELVAEGVMPEELLDTFNVPNCHPSKEEVEEVVDHETSCFHIQKLEYIHKHPFSPPNPELILKDAQSYAKWWTGILRGGLGGMLSAHMAPELTEALMERFSKHIEKDYLEKKPQFPMIMNICMGILIRK,soluble
10,QVQLQESGGGLVQAGGSLRLSCAASGSIFSINSMDWDRQAPGKQRELVATITSGGSTNYADSVKGRFTISRDNAKNTVYLQMNSLKPEDTAVYYCNANVKTWAGMTRDYWGQGTQVTVSSHHHHHH,soluble
11,MSLTKSGLAHAAGVSTSVIDGLVKQGVFETVFLPAPPVVAEPDPDYVEPRLEGPQKQAASEIIEDVRKGGFHVSLIDGVTGSGKTEVYFEAVAETLRQGKQVLILLPEIALTAAFLERFQDRFGAKPAEWHSDLSPRMREKVWRQAVTGEIKVVAGARSALFLPFDNLGLIIVDEEHDPAYKQEDRVFYNARDMAVVRARIAEFPVVLVSATPSVESQVNGSSGRYNTIHLHTRFGDAAMPDLHLVDMRRHPPERGGFLSPVLLRGIGKTIEKGEQSLLFLNRRGYAPLTLCRVCGHRFQCPQCSSWLVEHRFRNQLQCHQCGHNEPTPDHCPECGTFDHLVACGPGVERIAEEVEKHFPEARTIVLSSDLMGVKRLRLELEAIVKGEADIVIGTQLVAKGHNFPLMTLVGIVDADLGLANGDPRAAERTFQLLSQVTGRAGRTGLKSHGLLQTYQPQHPVMQAIVSGDASAFYEREIVEREKAVLPPFGRLASIIVSADTRAEAETHARGLRAAAPQVTGIMLLGPAEAPLALIRGRHRFRLLVHGRRNSDMQSFLRTLLASGPKERGSVHVQLDIDPQSFLEGHHHHHH,not soluble
12,DCYCRIPACIAGEAAYGTCIYQGALWAFCC,soluble
13,MSLEVISLSEKKGFNFNIIKNDPLDGHKGTNIGSISLDNIAPVFIDVANKEAFIDIGGMHARAKVEKGVKWITDKAAVEGDEAKEYWLCWVTTERNEQGPYYAGLTACYLLVNKAIRRGYKSMPEHVNMMDKSMKHHIIIDQIGDENKAILKDFLMNHDEGMWKHSSDALHQAFNEGHHHHHH,soluble
14,MGSDKIHHHHHHMKDILKELKKKLSEEDFNKFNGRVTRVVGLTVESKGPDAFLGEMCKISLQNGKNALAEVVGFREESVILMPYEDVSGLKMGCEVIRTNKVLEVGVSRKMIGRVFDGLGRPIDGKPFVPEDRYPLINNPPNPLKRRRIKDPLPVGIRSIDGFITIGKGQRIGIFAGSGVGKSTLLGMIARNTTADINVLALIGERGREVREFIERDLGEEGLKRSILVVSTSDQPALARVKSLLTATSIAEFFRDLGYDVLLMVDSLTRWAMAQREVGLAVGEPPTTRGYPPSVFAGLPKILERAGNSDKGSITAIYTVLVEADDFNEPISDTVRSIVDGHIILSRRLAESNHYPAVDVLASVSRLMNDIVTEEHREAANRLRSLMSAYESAKDLIEIGAYKSGTNPLVDKAVEMKDEIDSFLKQGVFEKASFEETLQKLLDLYLRSLD,not soluble
15,MKIKTLLSIITAMALLILGTEVATAQSTGVPTIDSGSPESNQPLNDTMITTKVKAELAIAEGIKSGDISVETVNGVVILTGTQPNEMLIKKAEEVAKSVKDVKQVDISGLTVNTTTAD,not soluble
16,SIVKMLLFQETARHSRAEGEPGASHSGSKQDKVPSSEEGTGCDASVCEAAAATHCEKDVTVSDTENVSSSKNILSHDPDVGTDTMEKEEKTHHACQEMELKVDQSSESTNPTEAELSSETRQGLQLTSGDVGIDQFLRQGDEPKSVNSDASDPGSVRLEPLTPSEVLEYEATEILHDGDDPSANTSDTVSDQTGGSPGGSNPCRAETAVDLADGEERS,soluble
17,AVTIPPARHAEPQRWIARLPGFKISENKAQALWELAGKNIEGLQTDKALPTDWQAWRSEPQNAALLENLKTFFAQMPSEDEAAQGSDGIN,not soluble
18,MGSDKIHHHHHHMKYRRIKGTNDIFGEEIWYWRYVEETFRNVCESAGIEEIRTPIFEQTELFVRSVGEESDIVQKEMYTFQDKAGRSITLRPEGTAPVVRAFLENSLIDRGFQQRYYYIGPMFRYEKPQSGRLRQFHQVGFEIIGPESPKADFEVIMLVDTFLRRLGLTKYKIHLNSIGCPVCRKNYREALKEYYGRILDNLCDDCKRRYETNILRLLDCKVDHEYSLNAPKSVDYLCDSCRAHYKKLKEYLNTFEIEYVEDHTLVRGLDYYTRTVFEVRHEGLGAQSAIAGGGRYDGLFAELGGSSVPALGFAGGIERIILALKAEGIEIPMKNVHLVYIATLGEKAFMDGVRLAGELRKKGLSVDVDIMDRKLSGQLKHASRMGSRYAVIIGDEELEKGIVILRDLETGDQVEIDRDFAADYIAERVSKD,not soluble
19,MIVIPMAGMSSRFFKAGYTQPKYMLEAHGQTLFEHSVNSFAAYFASTPFLFIVRNVYDTAVFVREKATQLGIKQFYIAELHTETRGQAETVTLGLEELAKQGVDYQGSITVFNIDTFRPNFVFPDISQHSDGYLEVFQGGGDNWSFAKPEHAGSTKVIQTAEKNPISDLCSTGLYHFNRKEDYLEAYREYVARPSQEWERGELYIAPLYNLLIQKGLNIHYHLIARHEVIFCGVPDEYTDFLRQPQPLEHHHHHH,soluble
